Measured values taken from IntAct's records for PubMed 22453338.

B1: Cyclin-D1-binding protein 1 (Homo sapiens), O95273 (parent)
chain: MASATAPAAAVPTLASPLEQLRHLAEELRLLLPRVRVGEAQETTEEFNREMFWRRLNEAAVTVSREATTLTIVFSQLPLPSPQETQKFCEQVHAAIKAFIAVYYLLPKDQGITLRKLVRGATLDIVDGMAQLMEVLSVTPTQSPENNDLISYNSVWVACQQMPQIPRDNKAAALLMLTKNVDFVKDAHEEMEQAVEECDPYSGLLNDTEENNSDNHNHEDDVLGFPSNQDLYWSEDDQELIIPCLALVRASKACLKKIRMLVAENGKKDQVAQLDDIVDISDEISPSVDDLALSIYPPMCHLTVRINSAKLVSVLKKALEITKASHVTPQPEDSWIPLLINAIDHCMNRIKELTQSELEL
partner: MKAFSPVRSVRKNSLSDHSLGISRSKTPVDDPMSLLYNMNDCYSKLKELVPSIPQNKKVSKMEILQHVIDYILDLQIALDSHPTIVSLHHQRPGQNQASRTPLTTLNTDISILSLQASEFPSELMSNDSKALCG
B2: Cyclin-D1-binding protein 1 (Homo sapiens), O95273 (parent)
chain: B1 chain

Variants of: B1
Conditions: with id2_human ID2, Q02363

| Variant | effect of a mutation on the interaction |
| --- | --- |
| MASATAPAAAVPTLASPLEQLRHLAEELRLLLPRVRVGEAQETTEEFNREMFWRRLNEAAVTVSREATTLTIVFSQLPLPSPQETQKFCEQVHAAIKAFIAVYYLLPKDQGITLRKLVRGATLDIVDGMAQLMEVLSVTPTQSPENNDLISYNSVWVACQQMPQIYRDNKAAALLMLTKNVDFVKDAHEEMEQAVEECDPYSGLLNDTEENNSDNHNHEDDVLGFPSNQDLYWSEDDQELIIPCLALVRASKACLKKIRMLVAENGKKDQVAQLDDIVDISDEISPSVDDLALSIYPPMCHLTVRINSAKLVSVLKKALEITKASHVTPQPEDSWIPLLINAIDHCMNRIKELTQSELEL [P166Y] | increasing interaction |

Variants of: B1
Conditions: with id2_human ID2, Q02363
Remark: another data set of the same source

| Variant | effect of a mutation on the interaction |
| --- | --- |
| MASATAPAAAVPTLASPLEQLRHLAEELRLLLPRVRVGEAQETTEEFNREMFWRRLNEAAVTVSREATTLTIVFSQLPLPSPQETQKFCEQVHAAIKAFIAVYYLLPKDQGITLRKLVRGATLDIVDGMAQLMEVLSVTPTQSPENNDLISYNSVWVACQQMPQIPRDEKAAALLMLTKNVDFVKDAHEEMEQAVEECDPYSGLLNDTEENNSDNHNHEDDVLGFPSNQDLYWSEDDQELIIPCLALVRASKACLKKIRMLVAENGKKDQVAQLDDIVDISDEISPSVDDLALSIYPPMCHLTVRINSAKLVSVLKKALEITKASHVTPQPEDSWIPLLINAIDHCMNRIKELTQSELEL [N169E] | increasing interaction |

Variants of: B1
Conditions: with id2_human ID2, Q02363
Remark: another data set of the same source

| Variant | effect of a mutation on the interaction |
| --- | --- |
| MASATAPAAAVPTLASPLEQLRHLAEELRLLLPRVRVGEAQETTEEFNREMFWRRLNEAAVTVSREATTLTIVFSQLPLPSPQETQKFCEQVHAAIKAFIAVYYLLPKDQGITLRKLVRGATLDIVDGMAQLMEVLSVTPTQSPENNDLISYNSVWVACQQMPQIPRDNKAAALLMLTKNVDFVKDAHEEMEQAVEECDPYSGLLNDTEENNSDNHNHEDDVLGFPSNQDLYWSEDDQELIIPCLALVRASKACLKKIRMLVAENGKKDQFAQLDDIVDISDEISPSVDDLALSIYPPMCHLTVRINSAKLVSVLKKALEITKASHVTPQPEDSWIPLLINAIDHCMNRIKELTQSELEL [V271F] | increasing interaction |

Variants of: B1
Conditions: with id2_human ID2, Q02363
Remark: another data set of the same source

| Variant | effect of a mutation on the interaction |
| --- | --- |
| MASATAPAAAVPTLASPLEQLRHLAEELRLLLPRVRVGEAQETTEEFNREMFWRRLNEAAVTVSREATTLTIVFSQLPLPSPQETQKFCEQVHAAIKAFIAVYYLLPKDQGITLRKLVRGATLDIVDGMAQLMEVLSVTPTQSPENNDLISYNSVWVACQQMPQIPRDNKAAALLMLTKNVDFVKDAHEEMEQAVEECDPYSGLLNDTEENNSDNHNHEDDVLGFPSNQDLYWSEDDQELIIPCLALVRASKACLKKIRMLVAENGKKDQVAQLDDIRDISDEISPSVDDLALSIYPPMCHLTVRINSAKLVSVLKKALEITKASHVTPQPEDSWIPLLINAIDHCMNRIKELTQSELEL [V278R] | increasing interaction |

Variants of: B2
Conditions: with ndf1_mouse Neurod1, Q60867
Chain of ndf1_mouse Neurod1, Q60867 (Q60867 whole entry): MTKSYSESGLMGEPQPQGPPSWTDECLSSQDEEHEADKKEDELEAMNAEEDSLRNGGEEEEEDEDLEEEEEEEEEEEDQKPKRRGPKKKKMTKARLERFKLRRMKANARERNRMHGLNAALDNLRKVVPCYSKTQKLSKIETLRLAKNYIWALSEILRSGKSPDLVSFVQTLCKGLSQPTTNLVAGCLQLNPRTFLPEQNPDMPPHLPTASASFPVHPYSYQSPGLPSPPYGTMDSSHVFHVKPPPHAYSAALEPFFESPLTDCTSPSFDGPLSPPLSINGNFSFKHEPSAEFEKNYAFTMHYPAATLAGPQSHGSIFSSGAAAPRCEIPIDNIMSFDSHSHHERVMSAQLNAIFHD

| Variant | effect of a mutation on the interaction |
| --- | --- |
| MASATAPAAAVPTLASPLEQLRHLAEELRLLLPRVRVGEAQETTEEFNREMFWRRLNEAAVTVSREATTLTIVFSQLPLPSPQETQKFCEQVHAAIKAFIAVYYLLPKDQGITLRKLVRGATLDIVDGMAQLMEVLSVTPTQSPENNDLISYNSVWVACQQMPQIPRDEKAAALLMLTKNVDFVKDAHEEMEQAVEECDPYSGLLNDTEENNSDNHNHEDDVLGFPSNQDLYWSEDDQELIIPCLALVRASKACLKKIRMLVAENGKKDQVAQLDDIVDISDEISPSVDDLALSIYPPMCHLTVRINSAKLVSVLKKALEITKASHVTPQPEDSWIPLLINAIDHCMNRIKELTQSELEL [N169E] | increasing interaction |

Variants of: B2
Conditions: with ndf1_mouse Neurod1, Q60867
Remark: another data set of the same source

| Variant | effect of a mutation on the interaction |
| --- | --- |
| MASATAPAAAVPTLASPLEQLRHLAEELRLLLPRVRVGEAQETTEEFNREMFWRRLNEAAVTVSREATTLTIVFSQLPLPSPQETQKFCEQVHAAIKAFIAVYYLLPKDQGITLRKLVRGATLDIVDGMAQLMEVLSVTPTQSPENNDLISYNSVWVACQQMPQIYRDNKAAALLMLTKNVDFVKDAHEEMEQAVEECDPYSGLLNDTEENNSDNHNHEDDVLGFPSNQDLYWSEDDQELIIPCLALVRASKACLKKIRMLVAENGKKDQVAQLDDIVDISDEISPSVDDLALSIYPPMCHLTVRINSAKLVSVLKKALEITKASHVTPQPEDSWIPLLINAIDHCMNRIKELTQSELEL [P166Y] | increasing interaction |

Variants of: B2
Conditions: with ndf1_mouse Neurod1, Q60867
Remark: another data set of the same source

| Variant | effect of a mutation on the interaction |
| --- | --- |
| MASATAPAAAVPTLASPLEQLRHLAEELRLLLPRVRVGEAQETTEEFNREMFWRRLNEAAVTVSREATTLTIVFSQLPLPSPQETQKFCEQVHAAIKAFIAVYYLLPKDQGITLRKLVRGATLDIVDGMAQLMEVLSVTPTQSPENNDLISYNSVWVACQQMPQIPRDNKAAALLMLTKNVDFVKDAHEEMEQAVEECDPYSGLLNDTEENNSDNHNHEDDVLGFPSNQDLYWSEDDQELIIPCLALVRASKACLKKIRMLVAENGKKDQFAQLDDIVDISDEISPSVDDLALSIYPPMCHLTVRINSAKLVSVLKKALEITKASHVTPQPEDSWIPLLINAIDHCMNRIKELTQSELEL [V271F] | increasing interaction |

Variants of: B2
Conditions: with ndf1_mouse Neurod1, Q60867
Remark: another data set of the same source

| Variant | effect of a mutation on the interaction |
| --- | --- |
| MASATAPAAAVPTLASPLEQLRHLAEELRLLLPRVRVGEAQETTEEFNREMFWRRLNEAAVTVSREATTLTIVFSQLPLPSPQETQKFCEQVHAAIKAFIAVYYLLPKDQGITLRKLVRGATLDIVDGMAQLMEVLSVTPTQSPENNDLISYNSVWVACQQMPQIPRDNKAAALLMLTKNVDFVKDAHEEMEQAVEECDPYSGLLNDTEENNSDNHNHEDDVLGFPSNQDLYWSEDDQELIIPCLALVRASKACLKKIRMLVAENGKKDQVAQLDDIRDISDEISPSVDDLALSIYPPMCHLTVRINSAKLVSVLKKALEITKASHVTPQPEDSWIPLLINAIDHCMNRIKELTQSELEL [V278R] | increasing interaction |
